Experimental findings from paper PMC9091222, “Profiling of hMPV F-specific antibodies isolated from human memory B cells” (Nature Communications, 2022) are described below.

In assay [1] the target is unprocessed hMPV PreF trimer (wild-type hMPV F ectodomain trimer, strain B2, C-terminal GCN4 trimerization … (Human metapneumovirus, subgroup B2 …, UniProt Q6W8S4, strain)). Briefly: cell-based or functional assay.
The target in assay [2] is T1, processed stabilized hMPV PreF trimer (115BV), co-expressed with furin (Human metapneumovirus, subgroup B2 …, UniProt Q6W8S4, stabilised).
T1 construct: F2 chain of the fusion (F) glycoprotein of human metapneumovirus, strain B2, after cleavage by co-expressed furin; disulfide-linked to F1; F1 chain (ectodomain part) of the fusion (F) glycoprotein of human metapneumovirus, strain B2, after cleavage by co-expressed furin; also called processed PreF; prefusion-stabilized hMPV F trimer 115BV; source: Expi293, co-transfected with furin at 1:1, …
As to the kind of experiment: cryo-EM structure; M4B06 Fab incubated with processed PreF (115BV) trimer (trimer:Fab = 1:3) for 1 h at 4 °C, purified on Superdex 200 Increase in 25 mM HEPES pH 7.5, 150 mM NaCl; map at 3.75 Å, no symmetry imposed; Fab not built. As to conditions: both partners purified.

B1: M4B06 IgG (antibody, V domains shown)
VH: EVQLLESGGGFVQPGGSLRLSCVVTGFTFSNYAMCWVRQAPGKGPEWVSGIGGSVGTTYYADSVKGRFTISRDNSKNTLYLQMSGLRAEDTARYYCAKVPSFFVFEDGFDMWGQGTVVTVSS
VL: QSVLTQPPSASGNPGQRVTISCYGSGSNIGNNYVHWFRQLPGTAPRLLIYNTDILVPGVPDRFSGSESGTSASLAISGLQSGDEADYFCAAWDDTLNGYVFGPGTTVTVL
For the molecule B1, in assay [1], the “neutralization IC50, hMPV A virus (plaque reduction neutralization assay)” value was 3.5 ng/mL and the “neutralization IC50, hMPV B virus (plaque reduction neutralization assay)” value amounted to 2.2 ng/mL.

B2: M4B06 Fab (Fab, V domains shown)
VH: EVQLLESGGGFVQPGGSLRLSCVVTGFTFSNYAMCWVRQAPGKGPEWVSGIGGSVGTTYYADSVKGRFTISRDNSKNTLYLQMSGLRAEDTARYYCAKVPSFFVFEDGFDMWGQGTVVTVSS
VL: QSVLTQPPSASGNPGQRVTISCYGSGSNIGNNYVHWFRQLPGTAPRLLIYNTDILVPGVPDRFSGSESGTSASLAISGLQSGDEADYFCAAWDDTLNGYVFGPGTTVTVL
notes: as the heavy chain of m4 before CDR3 (germline IGHV3-23*01); heavy chain CDR3; rest of VH after CDR3 and CH1 of the Fab; as the light chain of m4 before CDR3 (germline IGLV1-44*01); light chain CDR3; as the light chain of m4 after CDR3; The Fab was not built in the cryo-EM density map; also called M4B06 monovalent Fab; source: recombinantly purified
A word on the stoichiometry N: it is a count of units in the complex or per binding partner. On to B2, for which the “stoichiometry N” value in assay [2] was 3 Fabs per PreF trimer.
